From the RNAGym collection of RNA variant scans (doi:10.1073/pnas.2313332121)
This sample holds only a part of the variants without activity.

B1: TPR 5TU (parent)
chain: GGAUCUUCUCGAUCUAACAAAAAAGACAAAUCUGCCACAAAGCUUGAGAGCAUCUUCGGAUGCAGAGGCGGCAGCCUUCGGUGGCGCGAUAGCGCCAACGUUCUCAACUAUGACACGCAAAACGCGUGCUCCGUUGAAUGGAGUUUAUCAUG

Variants of: B1
Experiment: polymerase ribozyme fitness, log enrichment relative to wild type (log ratio); higher = more active; in vitro selection for triplet polymerase activity
Procedure, shortened: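 Mutant libraries of each subunit of a heterodimeric triplet polymerase ribozyme were built by PCR and transcribed. Each library went through one round of in vitro selection in triplicate: annealing with biotinylated primer, partner subunit and triplets, frozen incubation at −7 °C, gel excision of extended constructs, streptavidin-bead capture and RT-PCR. Input and output libraries were Illumina-sequenced; only genotypes with ≥10 input reads and ≥1 read per output were kept. Fitness is log2(genotype enrichment/wild-type enrichment), using inverse-variance-weighted replicate averages.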

Variant | polymerase ribozyme fitness (log ratio)
C76G C87G U102G C108A | ≤ -4.2
C76A C103U U134A | -4.15
C76U G81A C99U | -0.44
C75A C103G | ≤ -4.2
C75A C87U | -3.81
C75G C76G G81U C95G | ≤ -4.2
A73G G84U | -1.29
C76A C96U G140U | -3.67
U77G G84U | ≤ -4.2
C76G G80C C105U | ≤ -4.2
G74C | -3.96
G74A | -2.81
G74U | -3.33
C75G A89U C93G U104G A147C | ≤ -4.2
U78A A91U | ≤ -4.2
U77G G81A A97G C99G U101C G141U A142G | ≤ -4.2
U77C C87G A142G | ≤ -4.2
A73U G86U | -4.19
C76A C96A G128C | ≤ -4.2
C76A G84A | -0.957
C76A C79U C125U G140U | ≤ -4.2
A73U C85U G117U | -0.841
C76U C85U | -2.03
C76U G84A U101A | -0.872

Variant | polymerase ribozyme fitness (log ratio)
U77G C103G | ≤ -4.2
A73U C75U C118G | ≤ -4.2
C75A G83A A98U | -4.16
C75G G92U C103G A122C | ≤ -4.2
G74A A106C A142C | ≤ -4.2
C76A G83U A106G | -3.45
C76A C87U A142G | -1.46
C75G G88A U146G | ≤ -4.2
G74U C85G C99A A107U C125A | ≤ -4.2
A73U C75G G88C | ≤ -4.2
A73U C76A U77A G94C U104G A106G C108U | ≤ -4.2
G74A A91U G117U G141U | ≤ -4.2
C76U G117A | 0.649
U77G C99A G140A | ≤ -4.2
A73U G81U A106G A115G A119U A147C | ≤ -4.2
C75U C85U | 0.543
C75U C85A | -1.84
A73U C99A C103G C114U C123G | ≤ -4.2
C76U C85A A106C | ≤ -4.2
C75U C85U G86C | -1.49
U77A U78C G94U C95G C105U | ≤ -4.2
U77G A89G C95G C105G C108G | ≤ -4.2
C76U G88U A91C C93U G140C | ≤ -4.2
A73U G83A | -1.97

Variant | polymerase ribozyme fitness (log ratio)
C76A A122U | 0.592
C76A A122G | -0.466
A73U G83C G143C | ≤ -4.2
A73U C96G | -1.8
A73U G94A G152C | ≤ -4.2
C76A G84A U134G | -2.67
C76U A91U | -4.13
C76U G84U G143A | -2.57
U77G G141A | -4.18
C75U G84U U101C | -1.45
C76A G94A | -0.598
C76U C87G C125G | ≤ -4.2
G74A G80A C85A G92A C125A G136C A138G | ≤ -4.2
C76U C87G | -3.96
C76U C87A | -3.85
U77C C85A C108A U111C A113U | ≤ -4.2
C76U C87U G140U U146C | -3.72
C76A A98U | -0.0442
C75G G84A | -3.93
A73U C123U | -0.392
U78A C93G C108U | ≤ -4.2
C76U G94A C105U | -0.337
C75G C85U C87A A113G | ≤ -4.2
C76A C85U U145C | -0.371

Variant | polymerase ribozyme fitness (log ratio)
U78A | -3.62
C75U G136C | -2.6
C75U C93G A121U C123U | -2.27
C76U A115C | -0.614
C76A G152A | -2.86
G74A G141U | -2.35
C75A C96U A97C | ≤ -4.2
C75G C85G A147U | ≤ -4.2
C76G C87A U111A | ≤ -4.2
A73U G133U A147C | ≤ -4.2
C75U C93U G143U | -3.61
C76A C129G G136A | -3.95
A73U C96U C108G G141A U146G | ≤ -4.2
C76A C85U G140C | -3.97
C76U C96U A97G C99U C103G | ≤ -4.2
C76G U127C A150U | ≤ -4.2
C76U C96U | 0.0365
C76G G88A G136A U139G | ≤ -4.2
C75U G84U | -2.45
C75U G92C C132A | ≤ -4.2
U77G G86U U102C G140C | ≤ -4.2
U78A C93A G94U | -4.16
C75U A122G G124A C149U | -1.15
G74C G92U | -4.02

Variant | polymerase ribozyme fitness (log ratio)
U77A G81A A113U U134G | ≤ -4.2
A73U G80A C93U U146G | -3.03
A73G G86A | -2.14
C76G C96G C99G G140U U148G | ≤ -4.2
C76U U135G | -2.79
C76U U135C | -2.53
G74A U145A | -3.36
C76A C123U U134A | -1.5
U77G C93A G143A U146C | ≤ -4.2
C76A | -0.118
C76U | 0.0494
U77G A107U U144C U145C | ≤ -4.2
C76A C125G U144G | -2.22
U77C G136U C149G | -4.11
C75U G128A | -3.95
C75U G128U | -3.28
C76A A138U | -4.05
A73G G83U G84U | -1.48
C76A G92A U134C | -3.62
C76A C118A | -0.944
C76A C95U A142G | -1.94
C76G A98G A113U U151G | ≤ -4.2
C76U C85U C99G | -1.05
C75U A91G | -3.07

Variant | polymerase ribozyme fitness (log ratio)
C75G A142U | -3.7
C75A G86U | ≤ -4.2
A73U U102G | ≤ -4.2
C76U G84A C85A C129U U134C | ≤ -4.2
G74U A97U | -4.18
U77G U82A A110C G136A A137U A138U | ≤ -4.2
C75U G83A C105G G128U U134A A138U G141U | ≤ -4.2
A73G G88A A107G | ≤ -4.2
C76A A97G | -1.4
C75G G81U G84C A137U U146C | ≤ -4.2
C76U A122G | -0.0921
C75U C96G | 0.716
C76A C85U | -0.443
C76A C85A | -1.96
C76U C99A | -1.37
A73U U90G G117U G133U | ≤ -4.2
A73G C118G C132G | ≤ -4.2
C75U A121G | -0.596
A73U A150G | -2.68
C76U A97G G100A A142G | ≤ -4.2
U77G A91G G152A | ≤ -4.2
C76G G140U U151G | ≤ -4.2
C75U U78C G84A | -1.65
C75A U135C | ≤ -4.2

Variant | polymerase ribozyme fitness (log ratio)
C75U A122U | -0.205
G74U G88A A119U C125U | -3.95
C75U C96A G128U | -3.56
A73G U148A | -3.81
A73G U148C | -2.55
C75U G80C A91G A97U A122G | ≤ -4.2
U77A U90A G133U A142C | ≤ -4.2
C75U A137C | -3.47
C76G C103G U104G U135C | ≤ -4.2
C76A C131G | -3.98
A73G U104C | -0.284
A73G U134G | -2.2
C76G A91U A106G U135A | ≤ -4.2
C76G G88C | ≤ -4.2
U77C | -2.04
U77A | ≤ -4.2
C75U G94C G100U A107G | ≤ -4.2
C76G G84A C118A G141C | ≤ -4.2
C75A C95G C96U | ≤ -4.2
C76G G84U U145C | ≤ -4.2
C75G U82G A91C | ≤ -4.2
C76U C93G C132U | -3.96
C75U C85U U111G A121U G152A | ≤ -4.2
